In US20250257332A1, “TRUNCATED AND FUSION PROTEINS” (Monash University, priority 2021, published 2025):
Entries after “also recorded” stand apart in the source; their conditions may differ.

Tests used:
[1] = test system: needle-stab muscle injury in zebrafish larvae; test: Larval zebrafish muscle injury and EdU pulse-chase; assay type: in vivo; conditions: 57 nM in Ringer's solution immediately after injury at 4 dpf; EdU at 2 dpi
Experimental: Zebrafish larvae (4 dpf) were anaesthetized in 0.01% tricaine (MS-222) (Sigma-Aldrich) in Ringer's solution. Needle-stab injury was carried out in the dorsal myotome, consisting in a single 30-gauge needle puncture that generates an extensive injury with many damaged muscle fibres. Nampt fragment treatments were carried out by incubating 4 dpf needle-stab-injured larvae in 57 nM Nampt in Ringer's solution immediately after injury. Needle-stab-injured larvae at 6 dpf (2 dpi) were transferred into Ringer's solution containing 50 μg ml-1 EdU (Thermo Fisher Scientific) for 1 h and chased for a further 1.5 h before fixation. Samples were developed using the Click-iT EdU Alexa Fluor 647 imaging Kit (Thermo Fisher Scientific) following the manufacturer's protocol, followed by a phalloidin immunostaining (Thermo Fisher Scientific). EdU+ cells in a region encompassing two myotomes on either side of the injury were quantified as the number of EdU+ cells outside the injury region. EdU+ cells in the caudal haematopoietic tissue were excluded from this analysis. Statistical analysis has been conducted using Two-way ANOVA with Tuckey's multiple comparison test.

[2] = test system: Human primary satellite cells; test: Human primary satellite cell proliferation, CyQuant; assay type: cell-based; conditions: 20 nM; 48 hours; media with IGF-1 and FGF-2
Experimental: (§1) FIG. 8. Human NAMPT variants stimulate human satellite cell proliferation. Human primary satellite cells were treated with 20 nM full length NAMPT (NAMPT) or NAMPT variants (NAMPTxxx-xxx, where xxx are amino acid numbers) for 48 hours. The media contained the growth factors IGF-1 and FGF-2 as well. Quantification of cell proliferation was performed using CyQuant Proliferation Assay kit. […] Treatment with 20% FBS was used as a positive control. Box and whiskers denote median with minimum and maximum values. n=6-10 independent experiments per protein. Statistical significance is indicated as p-value and determined by one-sample t-test.
The inventors next sought to compare the activity of full length NAMPT, NAMPT402-491 and NAMPT422-491 on human satellite cell proliferation. Human primary satellite cells were treated with 20 nM full length NAMPT (NAMPT) or NAMPT402-491 and NAMPT422-491 for 48 hours.

[3] = test system: Human primary endothelial cells derived from umbilical vein; test: Human primary endothelial cell proliferation, CyQuant; assay type: cell-based; conditions: 20 nM; 48 hours
Experimental: as §1, with “9.” for “8.”, “endothelial” for “satellite”, “cells derived from umbilical vein” for “cells”, “hours.” for “hours. The media contained the growth factors IGF-1 and FGF-2 as well.”, “10%” for “20%”, “n=6” for “n=6-10”
Similarly, the inventors next investigated the activity of full length NAMPT, NAMPT402-491 and NAMPT422-491 on human endothelial cell proliferation. Human endothelial cells were derived from umbilical vein and treated with 20 nM full length NAMPT (NAMPT) or NAMPT variants for 48 hours.

[4] = test system: C2C12 murine myoblast cells; test: C2C12 cell proliferation, CyQuant Proliferation Assay kit; assay type: cell-based, mouse; conditions: 20 nM, 48 hours, compared with full-length NAMPT
Experimental: FIG. 7. Human NAMPT variants stimulate muscle progenitor proliferation. C2C12 mouse myoblasts were treated with 20 nM full length NAMPT (NAMPT) or NAMPT variants for (NAMPTxxx-xxx, where xxx are amino acid numbers) 48 hours. Quantification of cell proliferation was performed using CyQuant Proliferation Assay kit. […] Box and whiskers denote median with minimum and maximum values. n=4-5 independent experiments per protein. Statistical significance is indicated as exact p-value. […] Significance between conditions were analysed by one-way ANOVA with Tukey post-hoc test.
Human NAMPTcif (hNAMPTcif) and truncated variants of hNAMPTcif were designed by progressively removing N-terminal regions containing positively charged amino acids. Four truncations were produced and numbered T1 to T4. Recombinant protein was produced using a bacterial expression system. hNAMPTcif variants were purified by FPLC using His-tag affinity purification. Cell proliferation assays were performed using C2C12 murine myoblast cells treated with purified recombinant hNAMPTcif variants, as well as full length NAMPT. Cells were treated with 10 nM of recombinant protein for 48 hours in DMEM supplemented with 2% foetal bovine serum at 37° C., 5% CO2. PBS treatment was used as a negative control. 10% foetal bovine serum was used as positive control. Quantification of proliferation was performed using commercially-available CyQuant Proliferation Assay kit (Thermo Fisher Scientific) according to manufacturer's instructions and read using a Synergy H1 plate reader (BioTek). Data were presented as percentage increase versus.
The heparin-binding sequence of placenta growth factor 2 (PIGF2) was fused to the N-terminus of NAMPTcif and produced using a bacterial expression system. PIGF-NAMPTcif was purified by FPLC using His-tag affinity purification followed by size exclusion chromatography. Cell proliferation assays were performed using C2C12 murine myoblast cells treated with purified recombinant NAMPTcif and full length NAMPT. Cells were treated with 2 nM, 10 nM and 20 nM concentrations of recombinant protein for 48 hours in DMEM supplemented with 2% foetal bovine serum at 37° C., 5% CO2. PBS treatment was used as a negative control. 10% foetal bovine serum was used as positive control. Quantification of proliferation was performed using commercially-available CyQuant Proliferation Assay kit (Thermo Fisher Scientific) according to manufacturer's instructions and read using a Synergy H1 plate reader (BioTek). Data were presented as percentage increase versus negative control. A two-tailed unpaired t-test was used to determine statistical significance.

C2C12 myoblasts = test: C2C12 myoblast proliferation by EdU incorporation; assay type: cell-based, mouse; conditions: exogenously added factor vs control
Experimental: FIG. 2. […] In vitro assay assessing the effects of exogenously introduced factors on C2C12 myoblast proliferation. Proliferation is identified by EdU incorporation. […] Mean+S.D. Two-way ANOVA with Tukey's multiple comparison test. […] Mean±SEM
The mouse muscle cell line C2C12 (Yaffe, D. & Saxel, O. Serial passaging and differentiation of myogenic cells isolated from dystrophic mouse muscle. Nature 270, 725 (1977) were cultured in growth media (Dulbecco's Modified Eagle Medium (4.5 g/l D-Glucose, No L Glutamine, No Sodium Pyruvate (Gibco))+20% Fetal Bovine Solution-One Shot (Gibco)+1% Glut Max 100×(Gibco)). Cells were maintained at 37° C., 5% CO2. Cells at 70% confluence, passage 8 were extracted from T75 flasks with 0.025% Tryspin EDTA (Gibco), neutralised in growth media, spun at 180×g for 5 min to pellet cells. The cells were then resuspended in 10 ml of fresh growth media. 500 μl of cells were plated on a 8-well on cover glass II (Sarstedt) chamber slide at a density of 1×10^3 cells/ml. Cells were left 4 h at 37° C. to re-attach. For drug treatments, the media were supplemented with appropriate doses and cultured for 6 h.

Row | Molecule | cell proliferation, percentage increase vs PBS-treated control [4] | myoblast proliferation (EdU incorporation), factor alone (C2C12 myoblasts) | also measured
1 | NAMPT422-491: Truncated hNAMPTcif, residues 422-491 of full length NAMPT, SEQ ID NO: 6 (His-tagged: SEQ ID NO: 7) (protein) NKRSKKGRLSLHRTPAGNFVTLEEGKGDLEEYGQDLLHTVFKNGKVTKSYSFDEIRKNAQLNIELEAAHH | highest cellular proliferation compared to all NAMPT variants tested; also recorded: statistically significant increase in proliferation |  | cell proliferation (EdU-positive cells) within the injury zone [1]: significant increase in cell proliferation within the injury zone; also recorded: significantly higher levels as compared to human recombinant-NAMPT (hrNAMPT); satellite cell proliferation, percentage increase vs PBS-treated control [2]: even greater satellite cell proliferation compared to both full length NAMPT and NAMPT402-491; endothelial cell proliferation, percentage increase vs PBS-treated control [3]: still stimulated endothelial cell proliferation above negative control
2 | CCL4/MIP-1β: canonical CCR5 ligand (protein, UniProt P14097 24-92, looked up) C-C motif chemokine 4: APMGSDPPTSCCFSYTSRQLHRSFVMDYYETSSLCSKPAVVFLTKRGRQICANPSEPWVTEYMSDLELN |  | could be recapitulated | myoblast proliferation (EdU incorporation), factor alone (C2C12 myoblasts; listed as mrCCL4): functioned to enhance C2C12 proliferation
3 | NAMPT430-491: Truncated hNAMPTcif, residues 430-491 of full length NAMPT, SEQ ID NO: 8 (His-tagged: SEQ ID NO: 9) (protein) LSLHRTPAGNFVTLEEGKGDLEEYGQDLLHTVFKNGKVTKSYSFDEIRKNAQLNIELEAAHH | enhanced cellular proliferation compared to full-length NAMPT |  | 
4 | CCL8/MCP-2: canonical CCR5 ligand (protein, UniProt Q9Z121 24-97, looked up) C-C motif chemokine 8: GPDKAPVTCCFHVLKLKIPLRVLKSYERINNIQCPMEAVVFQTKQGMSLCVDPTQKWVSEYMEILDQKSQILQP |  | could be recapitulated | myoblast proliferation (EdU incorporation), factor alone (C2C12 myoblasts; listed as mrCCL8): functioned to enhance C2C12 proliferation
5 | hrNAMPT(1): Commercially available human recombinant NAMPT source 1 (Peprotech); used in the mouse injury model (protein) PPNTSKVYSYFECREKKTENSKLRKVKYEETVFYGLQYILNKYLKGKVVTKEKIQEAKDVYKEHFQDDVFNEKGWNYILEKYDGHLPIEIKAVPEGFVIPRGNVLFTVENTDPECYWLTNWIETILVQSWYPITVATNSREQKKILAKYLLETSGNLDGLEYKLHDFGYRGVSSQETAGIGASAHLVNFKGTDTVAGLALIKKYYGTKDPVPGYSVPAAEHSTITAWGKDHEKDAFEHIVTQFSSVPVSVVSDSYDIYNACEKIWGEDLRHLIVSRSTQAPLIIRPDSGNPLDTVLKVLEILGKKFPVTENSKGYKLLPPYLRVIQGDGVDINTLQEIVEGMKQKMWSIENIAFGSGGGLLQKLTRDLLNCSFKCSYVVTNGLGINVFKDPVADPNKRSKKGRLSLHRTPAGNFVTLEEGKGDLEEYGQDLLHTVFKNGKVTKSYSFDEIRKNAQLNIELEAAHH |  | dose dependent increase in myoblast proliferation; also recorded: comparable and significant dose dependent increases in myoblast proliferation | 
6 | hrNAMPT(2): Second commercially available human recombinant NAMPT protein source (protein) MNPAAEAEFNILLATDSYKVTHYKQYPPNTSKVYSYFECREKKTENSKLRKVKYEETVFYGLQYILNKYLKGKVVTKEKIQEAKDVYKEHFQDDVFNEKGWNYILEKYDGHLPIEIKAVPEGFVIPRGNVLFTVENTDPECYWLTNWIETILVQSWYPITVATNSREQKKILAKYLLETSGNLDGLEYKLHDFGYRGVSSQETAGIGASAHLVNFKGTDTVAGLALIKKYYGTKDPVPGYSVPAAEHSTITAWGKDHEKDAFEHIVTQFSSVPVSVVSDSYDIYNACEKIWGEDLRHLIVSRSTQAPLIIRPDSGNPLDTVLKVLEILGKKFPVTENSKGYKLLPPYLRVIQGDGVDINTLQEIVEGMKQKMWSIENIAFGSGGGLLQKLTRDLLNCSFKCSYVVTNGLGINVFKDPVADPNKRSKKGRLSLHRTPAGNFVTLEEGKGDLEEYGQDLLHTVFKNGKVTKSYSFDEIRKNAQLNIELEAAHH |  | dose dependent increase in myoblast proliferation; also recorded: comparable and significant dose dependent increases in myoblast proliferation | 
7 | NAMPT414-491: Truncated hNAMPTcif, residues 414-491 of full length NAMPT, SEQ ID NO: 4 (His-tagged: SEQ ID NO: 5) (protein) FKDPVADPNKRSKKGRLSLHRTPAGNFVTLEEGKGDLEEYGQDLLHTVFKNGKVTKSYSFDEIRKNAQLNIELEAAHH | enhanced cellular proliferation compared to full-length NAMPT |  | 
